# Measurements taken from the nanobody polyreactivity screen of Harvey et al. (2022).
# Assay: yeast display, Sf9 membrane polyspecificity reagent, FACS + sequencing; frameworks hold sequencing errors
# Method in brief: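 Galactose induction of a Saccharomyces cerevisiae BJ5465 synthetic nanobody display library ran 36–48 hours. The cells were then stained for 1 hour at 4 °C with 10% biotinylated, detergent-solubilized Sf9 membrane reagent, pulled down on streptavidin microbeads and FACS-sorted into low and high (top ~1%) gates on expression and reagent-binding fluorescence. Labels for polyreactivity follow the gate of origin.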
row,Sequence,polyreactivity (PSR sort gate)
1,QVQLVESGGGLVQAGGSLRLSCAASGRIFYTNAMGWSRQAPGKERELVAVISWGGDTTYYADSVKGRFTISRDNAKNTVYLQMNSLKPEDTAVYYCNADWGPTYEIYDSWGQGTQVTVSS,low polyreactivity
2,QVQLVESGGGLVQAGGSLRLSCAASGRIFYTNAMGWYRQAPGKERELVAAIDYSDSTTYYADSVKGRFTISRDNAKNTVYLQMNSLKPEDTAVYYCAAESYLYTVTFEYWGQGTQVTVSS,high polyreactivity
3,QVQLVESGGGLVQAGGSLRLSCAASGRIFYTNAMGWYRQAPGKERELVAVISWGGDTTYYADSVKGRFTISRDNAKNTVYLQMNSLKPEDTAVYYCKADWGPTYEIYDSWGQGTQVTVSS,low polyreactivity
4,QVQLVESGGGLVQAGGSLRLSCAASGRIFYTYAMGWYRPAPGKERELVAAITYRGGSTYYADSVKGRFTISRDNAKNTVYLQMNSLKPEDTAVYYCAGRPGRGPDSRWRYKYDYWGQGTQVTVSS,high polyreactivity
5,QVQLVESGGGLVQAGGSLRLSCAASGRIFYTYAMGWYRQAPGKERELVAAIRWRGGSTHYADSVKGRFTISRDNAKNTVYLQMNSLKPEDTAVYYCARDGGWYIDGRAYTGDYWGQGTQVTVSS,high polyreactivity
6,QVQLVESGGGLVQAGGSLRLSCAASGRIFYTYAMGWYRQAPGKERELVATISGRGGSTYYADSVKGRFTISRDNAKNTVYLLMNSLKPEDTAVYYCAAVSYTQSHAYWGTGYRYGYWGQGTQVTVSS,high polyreactivity
7,QVQLVESGGGLVQAGGSLRLSCAASGRIFYVNAMGWYRQAPGKERELVATINYTDGSTYYADSVKGRFTISRDKAKNTVYLQMNSMKPEDTAVYYCAADAVWYDFVAYWTTYYYWGPGTQVTVSS,low polyreactivity
8,QVQLVESGGGLVQAGGSLRLSCAASGRIFYVYAMGWYRQAPGKEREFVAAITRRSGSTYYADSVKGRFTISRDKAKNTVYLQMNSLKPEDTAVYYCNARLKYAFPQVPPYDYWGQGTQVTVSS,high polyreactivity
9,QVQLVESGGGLVQAGGSLRLSCAASGRIFYVYGMGWYRQAPGKERELVGAISKRGDNTYYADSVKGRFTISRDNAKNTVYLQMNSLNPEDTAVYYCNVKRYGGRSDYWGQGTQVTVSS,high polyreactivity
10,QVQLVESGGGLVQAGGSLRLSCAASGRIFYWNAMGWYRQAPGKERELVAVITKSGGSTYYADSVKGRFTISRDNAKNTVYLQMNSLKPEDTAVYYCAKSLYVQGYYIYDWGQGTQVTVSS,high polyreactivity
11,QVQLVESGGGLVQAGGSLRLSCAASGRIFYWYAMGWYRQAPGKERELVAAISGSDGSTYYADSVKGRFTISRDNAKNTVYLQMNSLKPEDTAVYYCADEGSYPRMDYWGQGTQVTVSS,low polyreactivity
12,QVQLVESGGGLVQAGGSLRLSCAASGRIFYYNAMGWSRQAPGKEWELVAAITYSGTSTYYAASVKGRFTISRDNAKYTVYLQMNSLKPEDTAVDYCNAEGDNRRDRYDYWGQGTQVTVSS,low polyreactivity
13,QVQLVESGGGLVQAGGSLRLSCAASGRIFYYNAMGWYRQAPGKEREFVAAITYRGGSTYYADSVKGRFTISRDNAKNTVYLQMNSLKPEDTAVYYCAARSAWQVAPRGRTVAFDYWGQGTQLTVSS,high polyreactivity
14,QVQLVESGGGLVQAGGSLRLSCAASGRIFYYNAMGWYRQAPGKERELVAAITRSGSTNYADSVKGRFTISRDNSKNSVYLQMNSLKPEDTAVYYCAAPWRGSVFRYYSWGQGTQVTVSS,low polyreactivity
15,QVQLVESGGGLVQAGGSLRLSCAASGRIFYYNAMGWYRQAPGKERELVAAITYIGGNTHYADSVKGRFTISRDNAKNTVYFQMNSLKPEDTAVYYCARGTVLGFYYEYGYWGQGTQVTVSS,low polyreactivity
16,QVQLVESGGGLVQAGGSLRLSCAASGRIFYYNTMGWYRQAPGKERELVAAISYRGGSTYYADSVKGRFTISRDNAKNTVYLQMNSLKTEDTAVYYCAAPVRQSSYTRYDSWGQGTQVTVSS,high polyreactivity

row,Sequence,polyreactivity (PSR sort gate)
1,QVQLVESGGGLVQAGGSLRLSCAASGRIFYYNTMGWYRQAPGKERELVAAITTNGGSTYYADSVKGRFTISRDNAKNTVYLQMNSPKPEDTAVYYCNRDRYPYYYAYNYWGQGTQVTVSS,low polyreactivity
2,QVQLVESGGGLVQAGGSLRLSCAASGRIFYYYAMGRYRQAPGKERELVAAISWSGGSTYYADSVKGRFTISRDNAKNTVYLQMNSLKPEDTAVYYCAAESRKYREYYYWGQGTQVTVSS,high polyreactivity
3,QVQLVESGGGLVQAGGSLRLSCAASGRIFYYYAMGWYRQAPGKERELVAAISSRGASTYYADSVKGRFTISRDNAKNTVYLQMNSLKPEDTAVYYCAASTPFRSTRYDYWGQGTQVTVSS,high polyreactivity
4,QVQLVESGGGLVQAGGSLRLSCAASGRIFYYYAMGWYRQAPGKERELVAAISSSGGSTYYADSVKGRYTISRDNAKNTVYLQMNSLKPEDTAVYYCNARTRYDMGYWGQGTQVTVSS,high polyreactivity
5,QVQLVESGGGLVQAGGSLRLSCAASGRIFYYYAMGWYRQAPGKERELVAAISWRGTSTYYADSVKGRFTISRDNAKNTVYLQMNSLKPEDTAVYYCAARYTKGMYYWGQGTQVSVSS,high polyreactivity
6,QVQLVESGGGLVQAGGSLRLSCAASGRIFYYYAMGWYRQAPGKERELVAAISWRGVSTYYADSVKGRFTISRDNAKNTVYLQMNSLKPEDTAVYYCAASQYRSPYPYRDYYTPDYDYWGQGTQVTVSS,high polyreactivity
7,QVQLVESGGGLVQAGGSLRLSCAASGRIFYYYAMGWYRQAPGKERELVAAITWNGTSTYYADSVKGRFTISRDNAKNTVYLQMNSLKPEDTAVYYCAAEGWVGAWWYVLDVRYDYWGQGTQVTVSS,low polyreactivity
8,QVQLVESGGGLVQAGGSLRLSCAASGRIFYYYAMGWYRQAPGKERELVATISRSGGSTYYADSVKGRFTISRDNAKNTVYLQMNSLKPEDTAVYYCAAGYGPSGYTRYYWGQGTQVTVSS,high polyreactivity
9,QVQLVESGGGLVQAGGSLRLSCAASGRIFYYYTMAWYRQAPGKERELVAAISWGGVNTDYADSVKGRFTISRDNAKNTVYLQMNSLKPEDTAVYYCAAGRWSVGTYDYWGQGTQVTVSS,low polyreactivity
10,QVQLVESGGGLVQAGGSLRLSCAASGRIFYYYVMGWYRQAPGKERELVAAISSRGGCTYYADSVKGRFTISRDNAKNTVYLQMNSLKPEDTAVYYCAAEYGSISLRYPYYWRYDYWGQGTQVTVSS,high polyreactivity
11,QVQLVESGGGLVQAGGSLRLSCAASGRIGRNAMGWYRQAPVKERELVATISWSAGRTFYADSVKGRFTISRDNAKNTVYLQMNSLKPEDTAVYYCAAGGWQRGYYWGQGTQVTVSS,high polyreactivity
12,QVQLVESGGGLVQAGGSLRLSCAASGRIGVNAMGWYRPAPGKERELVAAITGGASTYYADSVKGRFTISRDNAKNTVYLQMNSLKPEDTAVYYCNATGEYFGYLDLDYDYWGQGTQVTVSS,low polyreactivity
13,QVQLVESGGGLVQAGGSLRLSCAASGRIIAGYTMGWYRQAPGKERELVAAIRSSGRTHYADSVKGRFTISRDNAKNTVYLQMNSLKPEDTAVYYCAARWTYTFAYRFDYWGQGTQVTVSS,high polyreactivity
14,QVQLVESGGGLVQAGGSLRLSCAASGRIIGHYAMGWYRQAPGKERDLVAAISRGGSTYYADSVKGRFTISRDNAKNTVYLQKTSLKPEDTAVYYCAVRSGRRNYDRPAFGYWGQGTQVTVSS,high polyreactivity
15,QVQLVESGGGLVQAGGSLRLSCAASGRIIGINAMGWYRQAPGKERELVATITSGGDTNYADSVKGRFTISRDNAKNTVYLQMNSLKPEDTAVYYCNAESYGLGFGYDYWGQGTQVTVSS,low polyreactivity
